Assay [1] has as its target recombinant zebrafish Comp (cartilage oligomeric matrix protein) (zebrafish). The assay is described as follows: non-reducing agarose/polyacrylamide composite gel electrophoresis; purified recombinant Comp; 0.5% agarose/3% polyacrylamide composite gel, SDS sample buffer with 2 M urea, non-reducing; immunoblot with guinea pig antibodies to zebrafish Comp; recombinant rat COMP as marker of the pentamer.

Assay [2] concerns the target zebrafish Comp, tissue-derived (zebrafish (endogenous in 5 dpf whole zebrafish)). The assay is described as follows: non-reducing agarose/polyacrylamide composite gel electrophoresis; sequential extracts (TBS; 1 M NaCl/EDTA; 8 M urea) of whole 5 dpf zebrafish; 0.5% agarose/3% polyacrylamide composite gel, non-reducing; immunoblot with guinea pig antibodies to zebrafish Comp. In general terms: Immunoblotting shows a protein as a band on a membrane.

Consider “recombinant zebrafish Comp (cartilage oligomeric matrix protein)”, for which the stoichiometry N (in general, the number of molecules, sites or subunits per partner or assembly) in assay [1] came out at 5.

In assay [2], “zebrafish Comp, tissue-derived (natural protein)” displayed a stoichiometry N of 5.

These data come from paper PMC9702538.
